Consider one molecule from publication PMC4986862.

A value given as a limit tells only on which side of the number the result lay.

In this test the target is BD–PTLΔC1 (PETAL LOSS with the C-terminal activation region removed, fused to the GAL4 binding domain) (Arabidopsis thaliana). Briefly: two-hybrid; quantitative: α-galactosidase activity of the MEL1 reporter in liquid cultures, triplicate technical assays; BD–PTLΔC1 bait.

B1: AD–AKIN11 (full-length AKIN11 fused to the GAL4 activation domain) (natural protein)
chain: MDHSSNRFGNNGVESILPNYKLGKTLGIGSFGKVKIAEHVVTGHKVAIKILNRRKIKNMEMEEKVRREIKILRLFMHPHIIRQYEVIETTSDIYVVMEYVKSGELFDYIVEKGRLQEDEARNFFQQIISGVEYCHRNMVVHRDLKPENLLLDSRCNIKIADFGLSNVMRDGHFLKTSCGSPNYAAPEVISGKLYAGPEVDVWSCGVILYALLCGTLPFDDENIPNLFKKIKGGIYTLPSHLSSEARDLIPRMLIVDPVKRITIPEIRQHRWFQTHLPRYLAVSPPDTVEQAKKINEEIVQEVVNMGFDRNQVLESLRNRTQNDATVTYYLLLDNRFRVPSGYLESEFQETTDSGSNPMRTPEAGASPVGHWIPAHVDHYGLGARSQVPVDRKWALGLQSHAHPREIMNEVLKALQELNVCWKKIGHYNMKCRWVPGLADGQNTMVNNQLHFRDESSIIEDDCAMTSPTVIKFELQLYKAREEKYLLDIQRVNGPQFLFLDLCAAFLTELRVI
Turning to B1, the fold lower reporter (α-galactosidase) activation than AD–AKIN10 is more than 10 fold.
